Test [1] has as its target T1, postfusion RSV F ectodomain (F ΔFP), subtype A (respiratory syncytial virus subtype A, UniProt P03420 26-109; P03420 147-524).
T1 construct: extracellular domain; also called Postfusion subtype A
Description: BLI, IgG on sensor.
Description: (§1) IgG binding to DS-Cav1 and FA FP was determined by BLI measurements using a FortéBio Octet HTX instrument (Pall Life Sciences). […] Data was analyzed using the ForteBio Data Analysis Software 7. The data was fit to a 1:1 binding model to calculate an association and dissociation rate, and KD was calculated using the ratio kd/kₐ.

Test [2] addresses T2, prefusion-stabilized RSV F ectodomain (DS-Cav1), subtype B (respiratory syncytial virus subtype B).
T2 construct: extracellular domain; also called Prefusion subtype B
Kind of test: BLI, IgG on sensor. On the technique in general: In BLI a coated tip is dipped into the sample, and binding shifts an interference pattern.
Description: as §1

The target in test [3] is T3, postfusion RSV F ectodomain, subtype B (respiratory syncytial virus subtype B).
T3 construct: extracellular domain; also called Postfusion subtype B
Description: BLI, IgG on sensor.
Description: as §1

The target in test [4] is RSV F protein of subtype A strain A2, on virus (respiratory syncytial virus subtype A …, UniProt P03420 26-574). Description: cell-based or functional assay.
For test [5], the target named is RSV F protein of subtype B strain 18537, on virus (respiratory syncytial virus subtype B …, UniProt P13843 26-574). Kind of test: cell-based or functional assay.

This note sets out measurements from US20220144922A1 (Adimab, published 2022).

B1: ADI-15600 (antibody, V domains shown)
VH: EVQLVESGGGLIQPGGSLRLSCAVSGFSVSSNYISWVRQPPGKGLEWVSVSYSSGVTDYADSVKGRFTTSRDNSKNTLYLQMNSLRGEDTAVYYCARELVPNFYESHGYFSVWGQGTLVTVSS
VL: DIVMTQSPGTLSLSPGERATLSCRASQRVDSSYLAWYQQKPGQAPRLLIYGGSSRATGIPDRFSGSGSGTDFTLTISRLEPEDFALYYCQQYGFSQTFGQGTKVEIK
notes: IgG; also called Antibody Number 166
In the case of B1, the dissociation constant Kd was determined as 0.162 nM in test [1], 1.42 nM in test [2] and 0.148 nM in test [3]. For the same molecule, the “Neut IC50 (ug/ml) subtype A” value in test [4] is 1.31 µg/mL. Moreover, the “Neut IC50 (ug/ml) subtype B” value in test [5] turned out to be 0.958 µg/mL.

B2: ADI-15577 (antibody, V domains shown)
VH: QVQLVQSGAEVKKPGSSVKVSCKASGGTFGSYAISWVRQAPGQGLEWMGGTIPIFGTADHAQKFQGRVTITADKSTSTAYMELSSLRSEDTAVYYCARGVFRVGCSDTSCLKNYYGTDVWGQGTTVTVSS
VL: QSVLIQPASVSGSPGQSITVSCTGSSGDVGAYKYVSWYQQHPGRGPKLIIYDVSARPSGISDRFSGSKSGNTASLTISGLQAEDEADYYCSSYSSSSTLVVFGGGTKVTVL
notes: IgG
On to B2, for which the Kd in test [1] worked out at 0.779 nM; in test [2], 4.66 nM; in test [3] it was 0.679 nM. In test [4], the “Neut IC50 (ug/ml) subtype A” value was above 10 µg/mL. For the same molecule, in test [5], the “Neut IC50 (ug/ml) subtype B” value is above 10 µg/mL.

B3: ADI-15556 (antibody, V domains shown)
VH: QVQLVQSGAEVKKPGSSVKVSCKASGGNVNIYGISWVRQAPGQGLEWMGGIIPIYDTTKYAQKFQDRVTITADKSTSTAYMELSSLRSEDTAVYFCARDLDYDILTGYSVNYYYYGMDVWGQGTTVTVSS
VL: QSVLTQPPSVSGAPGQRVTISCTGSSSNIGAGYDVHWYQQLPGTAPKLLIYGNINRPSGVPDRFSGSKSGTSASLAITGLQAEDEADYYCQSCDSSLSGWVFGGGTKLTIL
notes: IgG
On to B3, for which the values for the dissociation constant (Kd) in test [1], in test [2] and in test [3] were 0.247 nM, 2.2 nM and 0.19 nM, respectively. The “Neut IC50 (ug/ml) subtype A” value in test [4] is 0.055 µg/mL. The “Neut IC50 (ug/ml) subtype B” value in test [5] came out at 0.081 µg/mL.

B4: ADI-15582 (antibody, V domains shown)
VH: QVQLVQSGGEVKKPGASVKVSCKASGYTFISYGITWVRQAPGQGPEWMGWISPYNGDTNYAQKLQGRVTMTTDTSTTTAYMELRSLRSDDTAIYYCARRYDILTGGGWFDSWGQGTLVTVSS
VL: DIVMTQSPSSLSASVGDRVTINCRASQSIISYLNWYQQKPGKAPELLIYAASSLQSGVPSRFSGSGSGTEFTLTISSLQPEDFATYYCQQSYSTPLSFGPGTKVEIK
notes: IgG
On to B4, for which the Kd in test [1] is 0.385 nM; in test [2], 2.32 nM; in test [3], 0.295 nM. In addition, the “Neut IC50 (ug/ml) subtype A” value in test [4] worked out at 2.22 µg/mL. In test [5], the “Neut IC50 (ug/ml) subtype B” value is 6.74 µg/mL.

B5: ADI-15659 (antibody, V domains shown)
VH: QVQLVQSGAEVKKPGSSVKVSCKASGGTFSTYGISWVRQAPGQGLEWMGRVIPMFGTATYAQKFQDRVTITADKATSTAYMELNSLRSDDTAVYYCARCPPFEGVRPPWFDPWGQGTLVTVSS
VL: SYELTQPPSVSVAPGRTAKITCGGYNIGNKRVHWYRQRPGQAPVLIVYDNADRPSGIPERFSGSNSGNTATLTISNVAAGDEADYHCQVWETSSDHPVFGGGTKLTVL
notes: IgG; also called Antibody Number 223
In the case of B5, the equilibrium dissociation constant (Kd) was 1.13 nM in test [1], 11.1 nM in test [2] and 3.66 nM in test [3]. Moreover, the “Neut IC50 (ug/ml) subtype A” value in test [4] is above 10 µg/mL. Also, the “Neut IC50 (ug/ml) subtype B” value in test [5] was above 10 µg/mL.

B6: ADI-15593 (antibody, V domains shown)
VH: QVQLVQSGGGLVRPGGSLRLSCAASGFMFSTYSMNWLRTVPGKGLEWVSSISGSSSHIYYADSVKGRFTISRDNTKNSLYLQMNSLRPEDTALYYCARYFGDYSGLGNYYYYGMDVWGQGTTVTVSS
VL: DIVMTQSPVSLPVTPGEPASISCRSSQSLLHSNGNNYLDWYLQRPGQSPQLLIYLGSNRASGVPDRFSGSGSGTDFTLRISRVEAEDVGVYYCMQALQTPRFGGGTKVEIK
notes: IgG; also called Antibody Number 160
As to B6, the dissociation constant Kd turned out to be 0.507 nM in test [1], 3.95 nM in test [2] and 0.761 nM in test [3]. In addition, the “Neut IC50 (ug/ml) subtype A” value in test [4] is above 10 µg/mL. Moreover, the “Neut IC50 (ug/ml) subtype B” value in test [5] is above 10 µg/mL.

B7: ADI-15006 (antibody, V domains shown)
VH: EVQLVESGPGLVKPSGTLSLTCTVSGDSMSDYYWSWIRQSPGRGLEWLGYIYYDGSTNYNPSLKGRGTISIDTSKSQFSLTLSSVKAADTAVYYCARGKYYDRGGYYLFYLDYWGQGILVTVSS
VL: DIRLTQSPSSLSASVGDRVTITCRASQTIASYVNWYQQKPGKAPKLLIYAASSLQDGVPSRFSGSGSGTDFALTISSLQPEDFAIYFCQQSYSTPIFTFGPGTKVEIK
notes: IgG; also called Antibody Number 125
On to B7, for which the figures for the dissociation constant Kd in test [1], in test [2] and in test [3] were 0.243 nM, 4.2 nM and 3.61 nM, respectively. Further, in test [4], the “Neut IC50 (ug/ml) subtype A” value came to 19.1 µg/mL. Moreover, the “Neut IC50 (ug/ml) subtype B” value in test [5] was above 10 µg/mL.

B8: ADI-15599 (antibody, V domains shown)
VH: EVQLLESGGGLVQPGRSLRLSCSGSGFTFGDYALSWVRQAPGKGLEWVGFIRSKAYGGTTEYAASVKGRFTISRDDSKSIAYLQMNSLKTEDTAVYYCTMAVVVPGATDAFDIWGQGTMVTVSS
VL: NFMLTQPHSVSESPGKTVTISCTRSSGSIASDYVQWFQQRPGSSPATVIYQDNQRPSGVPDRFSGSIDTSSNSASLTISGLKTEDEADYYCHSYDSSNPWVFGGGTKLTVL
notes: IgG; also called Antibody Number 165
In the case of B8, the results for the Kd in test [1], in test [2] and in test [3] were 1.23 nM, 0.246 nM and 0.652 nM, respectively. Further, in test [4], the “Neut IC50 (ug/ml) subtype A” value came to 0.11 µg/mL. Besides, the “Neut IC50 (ug/ml) subtype B” value in test [5] is 0.378 µg/mL.

B9: ADI-15611 (antibody, V domains shown)
VH: QVQLVESGAEVKKPGSSVKVSCKASGGTFGRDSISWVRQAPGQGLEWMGGINPIFHTSHYAQKFQGRVTITADESTSTAYMELGNLRSEDTAMYYCARVPPPRGHCESTSCLWGTYFAFWGQGTLVTVSS
VL: ETTLTQSPATLSLSPGERATLSCRASQRVRSYLAWYQQKPGQAPRLLIYDASIRATGIPARFSGSGSGADFTLTISSLEPEDFAVYYCQLRDYWPPTWTFGQGTKVEIK
notes: IgG
For B9, the equilibrium dissociation constant (Kd) worked out at 0.626 nM in test [1], 4.34 nM in test [2] and 0.609 nM in test [3]. For the same molecule, the “Neut IC50 (ug/ml) subtype A” value in test [4] was determined as 0.15 µg/mL. Moreover, in test [5], the “Neut IC50 (ug/ml) subtype B” value was 0.432 µg/mL.

B10: ADI-15588 (antibody, V domains shown)
VH: EVQLVESGPGLVKPSETLSLICRVFGGSVRRGDYNWNWIRQPPGKGLEWIGYIDYSGTTKYNPSLKSRVTISEDTSRNQFSLELRSVTAADTAMYYCARDVGSTPYNYYGMDVWGQGTTVTVSS
VL: EIVLTQSPGTLSLSPGERATLSCRASQTIKNNYLAWYQQKPGQAPRLLMYGVSSRPTGIPDRFSGSGSGTDFSLTIDRLEPEDFAVYYCQQFGRSPELTFGGGTKVEIK
notes: IgG; also called Antibody Number 155
On to B10, for which the dissociation constant (Kd) was 0.353 nM in test [1], 0.427 nM in test [2] and 0.953 nM in test [3]. Besides, the “Neut IC50 (ug/ml) subtype A” value in test [4] turned out to be 0.094 µg/mL. Moreover, the “Neut IC50 (ug/ml) subtype B” value in test [5] was found to be 0.234 µg/mL.

B11: ADI-15601 (antibody, V domains shown)
VH: EVQLLETGGGLVKPGGSLRLSCEATGFTFSDFAMSWVRQAPGKGLEWVSLIKSSDYPYYADSVRGRFTISRDNSKNTLYLRMDNLRADDTAVYYCAKDADFWSGEAYNGGYNFDSWGQGTLVTVSS
VL: EIVLTQSPATLSVSPGERATLSCRASQSIGTNLAWYQQKPGQAPRLLIFGASTRATGIPARFTGSGSGTEFTLTIGSLQSEDFAVYYCQQYNQWPPITFGGGTKVEIK
notes: IgG
For B11, the dissociation constant (Kd) was found to be 0.207 nM in test [1], 0.329 nM in test [2] and 0.193 nM in test [3]. In test [4], the “Neut IC50 (ug/ml) subtype A” value is 0.046 µg/mL. Besides, the “Neut IC50 (ug/ml) subtype B” value in test [5] amounted to 0.084 µg/mL.

B12: ADI-15660 (antibody, V domains shown)
VH: EVQLVQSGTEVKKPGESLKISCKASGYSSFPNWIGWVRQMPGKGLEYMGSIFPDDSNTRYSPSFRGLVAISADKSLRTAYLQWSSLKASDSAIYYCARGPFPHYFDSWGQGTLVTVSS
VL: NFMLTQPHSVSESPGKTVTISCTRSSGSIARNYVQWYQQRPGSSPTTVIYEDDQRPPGVPDRFSGSIDSSSNSASLTISGLQTEDEADYYCQSYDPTNQNVFGTGTKLTVL
notes: IgG
On to B12, for which the values for the Kd in test [1], in test [2] and in test [3] were 0.098 nM, 0.89 nM and 0.105 nM, respectively. In addition, the “Neut IC50 (ug/ml) subtype A” value in test [4] amounted to 17.3 µg/mL. The “Neut IC50 (ug/ml) subtype B” value in test [5] is above 10 µg/mL.

B13: ADI-15605 (antibody, V domains shown)
VH: QVQLVQSGPEVKKPGESLKISCKGSGYTFTTYWIGWVRQRPGKGLEWMGIIHPGDSDTRYSPSLQGQVTISVDKSINTAYLQWRSLKASDTGMYYCARFEYGDFGNDFWGQGTLVTVSS
VL: NFMLTQPHSVSESPGKTVTISCSRSSGSIANNYVQWYQQRPGSSPTTVIYEDNQRPSGVPDRFSGSIDSSSNSASLTISGLKTEDEADYYCQSYDSSNHRVFGGGTKLTVL
notes: IgG
Turning to B13, the Kd in test [1] was 0.163 nM; in test [2] it was 3.49 nM; in test [3] it was 0.171 nM. Moreover, the “Neut IC50 (ug/ml) subtype A” value in test [4] is above 10 µg/mL. Also, in test [5], the “Neut IC50 (ug/ml) subtype B” value is above 10 µg/mL.

B14: ADI-15667 (antibody, V domains shown)
VH: EVQLVESGGGLVQPGGSLRLSCAASGFTFSDFSMSWVRQAPGKGLEWVSLIKSSGYAYYADSVRGRFTISRDNSKNTLYLQMNSLRAEDTAIYYCAKDADFWSGAAYNGGYNFDSWGQGTLVTVSS
VL: DIQMTQSPATLSVFPGDRATLSCRASQSVGSNLAWYQQKPGQAPRLLIFGASTRATGIPARFSGSGSGTEFTLTISSLQSEDFAVYYCQQYHNWPPLTFGGGTKVDIK
notes: IgG
B14: the Kd in test [1] turned out to be 0.231 nM; in test [2] it was 0.333 nM; in test [3] it was 0.208 nM. Besides, in test [4], the “Neut IC50 (ug/ml) subtype A” value worked out at 0.039 µg/mL. The “Neut IC50 (ug/ml) subtype B” value in test [5] was 0.048 µg/mL.

As a reminder, the Kd is the concentration at which binding is half-saturated. Read a low Kd as tighter binding.
